The record followed here is patent US20220229068A1, “DETECTION OF PROTEIN TO PROTEIN INTERACTIONS” (THE GOVERNING COUNCIL OF THE UNIVERSITY OF TORONTO, priority 2019, published 2022).

What all share (assay): SIMPL ELISA, bait-IN/prey-CIC
(In general: ELISA stands for enzyme-linked immunosorbent assay.)

Assay [1] has as its target T1, ORC4 (prey, CIC format) (human) (UniProt O43929).
T1 sequence (looked up): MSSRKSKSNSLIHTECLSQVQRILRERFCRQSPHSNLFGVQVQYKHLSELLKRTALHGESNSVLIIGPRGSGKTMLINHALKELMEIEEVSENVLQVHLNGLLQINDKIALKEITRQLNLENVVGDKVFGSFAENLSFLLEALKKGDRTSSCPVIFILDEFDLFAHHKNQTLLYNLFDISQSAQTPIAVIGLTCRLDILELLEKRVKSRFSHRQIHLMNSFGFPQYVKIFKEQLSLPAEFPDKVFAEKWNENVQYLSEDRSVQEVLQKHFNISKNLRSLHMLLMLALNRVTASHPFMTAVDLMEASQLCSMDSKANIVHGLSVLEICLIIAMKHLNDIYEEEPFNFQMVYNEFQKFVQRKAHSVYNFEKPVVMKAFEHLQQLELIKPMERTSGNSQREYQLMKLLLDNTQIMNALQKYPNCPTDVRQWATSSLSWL

Assay [2] addresses CXCR2 (prey, CIC format) (human) (UniProt P25025).
Assay [3] concerns the target T2, MAP2K5 (prey, CIC format) (human) (UniProt Q13163).
T2 sequence (looked up): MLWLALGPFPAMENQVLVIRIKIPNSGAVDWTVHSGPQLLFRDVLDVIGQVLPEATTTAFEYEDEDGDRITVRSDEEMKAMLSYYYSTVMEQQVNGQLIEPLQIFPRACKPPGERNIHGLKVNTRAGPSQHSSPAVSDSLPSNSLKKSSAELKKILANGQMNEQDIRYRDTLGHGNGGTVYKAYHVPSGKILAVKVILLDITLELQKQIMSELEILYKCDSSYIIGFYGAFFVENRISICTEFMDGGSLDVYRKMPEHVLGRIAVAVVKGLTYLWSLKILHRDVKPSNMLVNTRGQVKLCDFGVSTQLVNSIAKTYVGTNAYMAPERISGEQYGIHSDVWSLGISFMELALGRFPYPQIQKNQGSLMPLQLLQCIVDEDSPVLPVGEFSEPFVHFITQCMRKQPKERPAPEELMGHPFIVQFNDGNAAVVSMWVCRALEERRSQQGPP

Assay [4] deals with SMAD4 (prey, CIC format) (human) (UniProt Q13485).
For assay [5], the target named is T3, MAD1L1 (prey, CIC format) (human) (UniProt Q9Y6D9).
T3 sequence (looked up): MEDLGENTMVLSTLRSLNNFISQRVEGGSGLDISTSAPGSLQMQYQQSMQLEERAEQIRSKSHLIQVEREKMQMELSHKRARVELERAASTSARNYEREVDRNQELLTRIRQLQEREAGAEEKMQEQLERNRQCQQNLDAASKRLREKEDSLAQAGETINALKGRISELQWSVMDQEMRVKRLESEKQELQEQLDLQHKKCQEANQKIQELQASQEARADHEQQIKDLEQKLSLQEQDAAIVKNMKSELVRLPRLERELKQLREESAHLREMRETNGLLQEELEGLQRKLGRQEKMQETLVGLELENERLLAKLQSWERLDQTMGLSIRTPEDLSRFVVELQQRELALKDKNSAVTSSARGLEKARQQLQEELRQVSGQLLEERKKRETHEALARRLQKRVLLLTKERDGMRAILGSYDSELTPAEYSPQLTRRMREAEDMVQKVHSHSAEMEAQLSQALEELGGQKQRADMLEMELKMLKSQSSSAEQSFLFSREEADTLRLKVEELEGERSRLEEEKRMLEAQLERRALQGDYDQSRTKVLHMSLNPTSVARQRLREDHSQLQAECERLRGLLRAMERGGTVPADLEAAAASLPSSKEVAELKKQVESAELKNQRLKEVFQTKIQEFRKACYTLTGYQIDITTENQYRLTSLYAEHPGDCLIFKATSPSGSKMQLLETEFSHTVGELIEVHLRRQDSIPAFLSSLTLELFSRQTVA

Assay [6] addresses NFE2L1 (prey, CIC format) (human) (UniProt Q14494).
The target in assay [7] is T4, NTF4 (prey, CIC format) (human) (UniProt P34130).
T4 sequence (looked up): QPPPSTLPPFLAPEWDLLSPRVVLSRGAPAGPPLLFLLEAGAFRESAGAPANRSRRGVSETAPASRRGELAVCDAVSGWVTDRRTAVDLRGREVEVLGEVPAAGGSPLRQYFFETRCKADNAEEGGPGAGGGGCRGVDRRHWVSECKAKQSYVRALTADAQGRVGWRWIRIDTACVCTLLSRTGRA

Assay [8] deals with PEX16 (prey, CIC format) (human) (UniProt Q9Y5Y5).
The target in assay [9] is T5, PEX11B (prey, CIC format) (human) (UniProt O96011).
T5 sequence (looked up): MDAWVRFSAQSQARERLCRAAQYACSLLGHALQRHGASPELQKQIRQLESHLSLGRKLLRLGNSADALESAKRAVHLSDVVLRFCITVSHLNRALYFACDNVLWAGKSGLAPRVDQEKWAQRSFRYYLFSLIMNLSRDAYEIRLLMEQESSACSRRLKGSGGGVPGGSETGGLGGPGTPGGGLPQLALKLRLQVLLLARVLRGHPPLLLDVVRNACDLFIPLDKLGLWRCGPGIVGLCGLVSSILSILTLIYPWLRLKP

The target in assay [10] is T6, BATF (prey, CIC format) (human) (UniProt Q16520).
T6 sequence (looked up): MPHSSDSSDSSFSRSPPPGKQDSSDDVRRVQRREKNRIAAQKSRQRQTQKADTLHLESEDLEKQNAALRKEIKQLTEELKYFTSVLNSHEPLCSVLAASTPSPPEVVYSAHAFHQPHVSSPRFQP

For assay [11], the target named is RAN (prey, CIC format) (human) (UniProt P62826).
Assay [12] concerns the target T7, CASP7 (prey, CIC format) (human) (UniProt P55210).
T7 sequence (looked up): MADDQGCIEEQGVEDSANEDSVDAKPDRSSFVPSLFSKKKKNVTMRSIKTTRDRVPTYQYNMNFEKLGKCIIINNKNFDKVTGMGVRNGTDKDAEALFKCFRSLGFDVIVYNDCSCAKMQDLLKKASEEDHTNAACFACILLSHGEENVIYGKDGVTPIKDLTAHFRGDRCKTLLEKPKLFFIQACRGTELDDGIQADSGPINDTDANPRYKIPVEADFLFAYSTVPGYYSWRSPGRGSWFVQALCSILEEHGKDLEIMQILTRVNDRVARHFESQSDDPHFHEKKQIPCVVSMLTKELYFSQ

The target of assay [13] is T8, S100B (prey, CIC format) (human) (UniProt P04271).
T8 sequence (looked up): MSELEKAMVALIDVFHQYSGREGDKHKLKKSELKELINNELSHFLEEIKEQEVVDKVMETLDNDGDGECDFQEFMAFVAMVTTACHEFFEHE

Assay [14] deals with CASP3 (prey, CIC format) (human) (UniProt P42574).
Assay [15] concerns the target SKP2 (prey, CIC format) (human) (UniProt Q13309).
The target of assay [16] is BTRC (prey, CIC format) (human) (UniProt Q9Y297).
BTRC (prey, CIC format) (human), sequence (Q9Y297 whole entry): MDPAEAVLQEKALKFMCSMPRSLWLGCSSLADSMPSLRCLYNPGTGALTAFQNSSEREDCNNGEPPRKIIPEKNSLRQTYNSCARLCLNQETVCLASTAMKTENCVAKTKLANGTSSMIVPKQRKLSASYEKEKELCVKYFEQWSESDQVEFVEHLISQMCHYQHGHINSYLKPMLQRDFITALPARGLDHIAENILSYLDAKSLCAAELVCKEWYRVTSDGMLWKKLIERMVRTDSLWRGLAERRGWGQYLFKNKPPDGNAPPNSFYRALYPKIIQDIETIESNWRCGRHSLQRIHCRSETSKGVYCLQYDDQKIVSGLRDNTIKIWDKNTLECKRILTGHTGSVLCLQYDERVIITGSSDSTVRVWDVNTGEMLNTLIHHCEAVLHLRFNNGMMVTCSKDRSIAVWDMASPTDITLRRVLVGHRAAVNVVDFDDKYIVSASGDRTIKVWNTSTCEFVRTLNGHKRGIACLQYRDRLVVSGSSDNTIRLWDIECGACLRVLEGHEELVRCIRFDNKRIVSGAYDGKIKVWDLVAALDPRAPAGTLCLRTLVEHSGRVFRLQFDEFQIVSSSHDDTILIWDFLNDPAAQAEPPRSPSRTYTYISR

S100A1 (bait, IN format), sequence (P23297 whole entry): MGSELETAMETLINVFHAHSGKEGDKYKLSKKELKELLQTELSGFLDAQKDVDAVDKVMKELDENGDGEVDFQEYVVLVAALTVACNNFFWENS
CXCR2 (prey, CIC format) (human), sequence (P25025 whole entry): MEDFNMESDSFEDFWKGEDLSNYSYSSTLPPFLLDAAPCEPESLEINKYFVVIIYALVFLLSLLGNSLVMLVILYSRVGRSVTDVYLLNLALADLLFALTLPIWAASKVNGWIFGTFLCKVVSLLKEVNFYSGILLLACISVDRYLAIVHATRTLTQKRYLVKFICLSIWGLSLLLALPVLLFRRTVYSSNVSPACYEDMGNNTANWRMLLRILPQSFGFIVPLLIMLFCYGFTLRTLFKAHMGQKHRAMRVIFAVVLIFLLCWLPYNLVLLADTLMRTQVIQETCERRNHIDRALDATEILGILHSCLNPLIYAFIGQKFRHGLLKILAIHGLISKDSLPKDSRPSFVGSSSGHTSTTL
RCC1 (bait, IN format), sequence (P18754 whole entry): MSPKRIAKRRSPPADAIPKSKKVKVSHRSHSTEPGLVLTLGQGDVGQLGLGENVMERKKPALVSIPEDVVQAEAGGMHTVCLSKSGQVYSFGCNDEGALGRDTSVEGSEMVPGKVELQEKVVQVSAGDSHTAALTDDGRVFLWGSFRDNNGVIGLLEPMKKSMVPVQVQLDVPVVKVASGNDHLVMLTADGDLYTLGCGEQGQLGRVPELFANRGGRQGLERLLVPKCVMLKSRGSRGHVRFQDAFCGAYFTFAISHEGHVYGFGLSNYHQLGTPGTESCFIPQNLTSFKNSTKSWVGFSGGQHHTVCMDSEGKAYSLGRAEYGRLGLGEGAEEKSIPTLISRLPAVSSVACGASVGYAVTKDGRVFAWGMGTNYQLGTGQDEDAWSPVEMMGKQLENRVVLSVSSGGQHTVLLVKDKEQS
SMAD4 (prey, CIC format) (human), sequence (Q13485 whole entry): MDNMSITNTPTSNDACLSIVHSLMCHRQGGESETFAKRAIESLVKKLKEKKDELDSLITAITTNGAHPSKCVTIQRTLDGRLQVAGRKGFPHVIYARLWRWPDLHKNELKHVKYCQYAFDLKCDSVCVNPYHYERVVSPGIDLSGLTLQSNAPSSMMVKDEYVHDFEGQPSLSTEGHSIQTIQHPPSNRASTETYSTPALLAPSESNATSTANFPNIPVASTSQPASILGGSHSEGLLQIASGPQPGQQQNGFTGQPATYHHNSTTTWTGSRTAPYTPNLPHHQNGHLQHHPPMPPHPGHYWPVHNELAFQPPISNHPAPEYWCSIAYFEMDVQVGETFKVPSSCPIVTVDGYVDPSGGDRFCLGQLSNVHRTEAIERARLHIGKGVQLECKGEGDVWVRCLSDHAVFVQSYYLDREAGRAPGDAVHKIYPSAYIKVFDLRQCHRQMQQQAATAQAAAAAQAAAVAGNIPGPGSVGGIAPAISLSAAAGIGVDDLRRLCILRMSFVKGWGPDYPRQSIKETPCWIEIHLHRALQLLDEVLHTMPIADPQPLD
PEX16 (prey, CIC format) (human), sequence (Q9Y5Y5 whole entry): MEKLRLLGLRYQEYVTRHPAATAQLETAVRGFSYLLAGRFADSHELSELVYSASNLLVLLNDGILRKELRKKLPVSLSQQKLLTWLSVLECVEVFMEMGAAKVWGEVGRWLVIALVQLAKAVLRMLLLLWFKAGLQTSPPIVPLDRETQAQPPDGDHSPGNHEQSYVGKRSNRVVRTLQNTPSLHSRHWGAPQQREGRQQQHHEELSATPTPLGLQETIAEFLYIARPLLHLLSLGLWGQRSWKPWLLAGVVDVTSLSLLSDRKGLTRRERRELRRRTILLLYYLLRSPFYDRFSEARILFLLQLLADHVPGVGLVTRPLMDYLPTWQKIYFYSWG
NFE2L1 (prey, CIC format) (human), sequence (Q14494 whole entry): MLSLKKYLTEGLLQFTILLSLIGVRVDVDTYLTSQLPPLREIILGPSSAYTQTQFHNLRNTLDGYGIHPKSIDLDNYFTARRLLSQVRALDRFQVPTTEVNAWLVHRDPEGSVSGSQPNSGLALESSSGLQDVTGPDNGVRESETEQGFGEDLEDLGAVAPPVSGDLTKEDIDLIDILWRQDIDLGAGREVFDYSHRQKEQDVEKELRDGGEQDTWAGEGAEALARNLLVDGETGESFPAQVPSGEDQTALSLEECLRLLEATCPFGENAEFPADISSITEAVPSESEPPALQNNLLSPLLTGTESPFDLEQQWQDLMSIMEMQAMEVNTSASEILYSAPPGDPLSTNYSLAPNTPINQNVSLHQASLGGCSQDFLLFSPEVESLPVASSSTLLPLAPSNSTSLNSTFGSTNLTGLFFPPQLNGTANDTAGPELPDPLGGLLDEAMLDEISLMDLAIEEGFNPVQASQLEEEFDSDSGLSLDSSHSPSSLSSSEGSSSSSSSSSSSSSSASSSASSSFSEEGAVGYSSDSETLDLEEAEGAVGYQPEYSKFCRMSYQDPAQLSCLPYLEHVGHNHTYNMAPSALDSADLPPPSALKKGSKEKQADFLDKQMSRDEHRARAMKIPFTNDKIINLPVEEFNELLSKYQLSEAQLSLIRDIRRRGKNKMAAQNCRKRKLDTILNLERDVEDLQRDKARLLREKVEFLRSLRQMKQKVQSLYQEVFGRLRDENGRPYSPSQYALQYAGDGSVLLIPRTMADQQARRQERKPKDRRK
SKP2 (prey, CIC format) (human), sequence (Q13309 whole entry): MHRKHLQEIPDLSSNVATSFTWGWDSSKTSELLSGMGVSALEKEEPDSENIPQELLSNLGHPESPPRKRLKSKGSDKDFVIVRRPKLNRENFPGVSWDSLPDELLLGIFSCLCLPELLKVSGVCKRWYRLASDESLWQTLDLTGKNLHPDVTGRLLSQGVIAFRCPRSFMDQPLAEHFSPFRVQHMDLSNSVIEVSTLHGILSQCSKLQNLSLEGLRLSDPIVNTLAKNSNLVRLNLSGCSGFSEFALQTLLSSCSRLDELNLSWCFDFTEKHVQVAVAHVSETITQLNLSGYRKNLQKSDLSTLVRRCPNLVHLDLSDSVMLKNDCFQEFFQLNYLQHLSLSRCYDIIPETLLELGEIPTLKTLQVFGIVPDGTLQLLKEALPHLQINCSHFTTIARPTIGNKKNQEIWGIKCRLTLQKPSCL
CASP3 (prey, CIC format) (human), sequence (P42574 whole entry): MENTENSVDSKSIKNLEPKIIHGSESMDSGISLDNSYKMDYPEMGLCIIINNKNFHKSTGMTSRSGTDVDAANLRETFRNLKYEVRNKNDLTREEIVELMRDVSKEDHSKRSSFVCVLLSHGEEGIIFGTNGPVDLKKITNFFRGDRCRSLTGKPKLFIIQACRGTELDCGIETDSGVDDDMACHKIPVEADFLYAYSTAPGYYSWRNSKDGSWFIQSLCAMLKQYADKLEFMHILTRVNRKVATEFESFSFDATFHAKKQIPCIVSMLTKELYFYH

For the substance “CXCL1 (bait, IN format) (from UniProt P09341 35-107) (ligand)”, the PLU mean was 0.103 in [1], 0.178 in assay [2], 0.27 in [3] and 0.101 in [4].
Turning to “MAD2L1 (bait, IN format) (from UniProt Q13257 1-205)”, the PLU mean in assay [5] worked out at 2.52; in assay [6], 0.0819; in [7], 0.133.
Regarding “PEX19 (bait, IN format) (from UniProt P40855 1-299)”, the PLU mean is 1.09 in assay [8], 1.18 in assay [9] and 0.154 in assay [10].
Turning to “RCC1 (bait, IN format) (from UniProt P18754 1-421)”, the PLU mean in assay [11] is 0.748; in assay [12], 0.125.
Take “S100A1 (bait, IN format) (from UniProt P23297 1-94)”: the PLU mean was determined as 0.822 in [13] and 0.158 in assay [14].
“SKP1A (bait, IN format) (from UniProt P63208 1-163)”: the PLU mean in assay [15] was found to be 0.376; in [16] it was 1.26; in assay [2], 0.107.
